Numbering of substitutions follows the chain as printed.
Key:
Assay in all cases: cleavage_in_vitro
[1] = target: T1, BamHI-HF E163A/E167T (Bacillus amyloliquefaciens) (UniProt P23940); settings: NEB1, 37 C
T1 sequence: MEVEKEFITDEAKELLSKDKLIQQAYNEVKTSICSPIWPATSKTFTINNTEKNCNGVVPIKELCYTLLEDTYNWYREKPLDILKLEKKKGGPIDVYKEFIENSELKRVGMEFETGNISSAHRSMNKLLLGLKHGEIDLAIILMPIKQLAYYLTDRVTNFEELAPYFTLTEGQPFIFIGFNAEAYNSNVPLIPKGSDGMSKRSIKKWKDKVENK

[2] = tested on: T2, BspQI (Bacillus sphaericus); settings: NEB3, 50 C
T2 sequence: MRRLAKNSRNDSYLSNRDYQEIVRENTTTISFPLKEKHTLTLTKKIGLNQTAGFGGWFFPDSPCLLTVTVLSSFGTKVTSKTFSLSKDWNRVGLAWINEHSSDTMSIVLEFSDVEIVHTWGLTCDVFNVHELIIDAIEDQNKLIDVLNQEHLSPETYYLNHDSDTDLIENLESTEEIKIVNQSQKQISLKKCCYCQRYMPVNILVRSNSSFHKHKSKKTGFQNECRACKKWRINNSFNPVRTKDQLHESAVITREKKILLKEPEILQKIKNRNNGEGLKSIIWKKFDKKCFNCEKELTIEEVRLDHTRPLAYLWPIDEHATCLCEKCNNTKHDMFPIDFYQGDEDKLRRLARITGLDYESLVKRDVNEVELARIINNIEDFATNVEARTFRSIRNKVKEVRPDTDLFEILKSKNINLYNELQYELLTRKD

[3] = tested on: T3, NcoI (Nocardia corallina); settings: NEB1, 37 C
T3 sequence: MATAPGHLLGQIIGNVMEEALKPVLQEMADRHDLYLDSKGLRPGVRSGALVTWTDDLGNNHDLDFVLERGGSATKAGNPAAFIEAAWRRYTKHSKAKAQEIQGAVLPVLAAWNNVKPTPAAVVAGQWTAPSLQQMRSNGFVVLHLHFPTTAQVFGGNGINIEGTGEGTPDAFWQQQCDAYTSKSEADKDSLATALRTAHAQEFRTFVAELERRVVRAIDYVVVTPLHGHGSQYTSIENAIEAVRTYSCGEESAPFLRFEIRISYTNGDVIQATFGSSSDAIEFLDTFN

[4] = tested on: T4, NcoI-HF A2T/R31A (Nocardia corallina); settings: NEB4, 37 C
T4 sequence: T3 sequence with A2T, R31A

[5] = target: T5, PstI (Providencia stuartii 164) (UniProt P00640); settings: NEB3, 37 C
T5 sequence: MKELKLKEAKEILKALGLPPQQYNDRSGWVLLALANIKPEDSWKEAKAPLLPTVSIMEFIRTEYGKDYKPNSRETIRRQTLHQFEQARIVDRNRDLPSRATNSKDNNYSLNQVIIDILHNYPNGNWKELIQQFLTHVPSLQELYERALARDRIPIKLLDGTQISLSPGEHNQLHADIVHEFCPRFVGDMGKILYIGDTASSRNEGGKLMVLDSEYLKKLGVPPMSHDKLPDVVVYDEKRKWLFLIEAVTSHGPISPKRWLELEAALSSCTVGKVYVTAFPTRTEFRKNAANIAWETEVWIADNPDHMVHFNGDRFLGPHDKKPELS

[6] = tested on: T6, SbfI (Streptomyces species Bf-61); settings: NEB1, 37 C
T6 sequence: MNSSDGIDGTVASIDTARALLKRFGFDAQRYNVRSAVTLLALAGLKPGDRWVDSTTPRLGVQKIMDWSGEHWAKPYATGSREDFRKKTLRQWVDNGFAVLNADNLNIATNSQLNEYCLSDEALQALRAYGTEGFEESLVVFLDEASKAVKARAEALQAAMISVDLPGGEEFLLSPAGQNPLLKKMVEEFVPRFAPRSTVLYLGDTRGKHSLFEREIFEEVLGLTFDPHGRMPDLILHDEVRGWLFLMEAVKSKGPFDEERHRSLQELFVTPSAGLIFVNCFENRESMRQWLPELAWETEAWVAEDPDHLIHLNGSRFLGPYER

[7] = tested on: T7, SbfI-HF K251A (Streptomyces species Bf-61); settings: NEB1, 37 C
T7 sequence: T6 sequence with K251A

[8] = target: T8, ScaI-HF H193A/S201F (Streptomyces caespitosus) (UniProt O52691); settings: NEB2, 37 C
T8 sequence: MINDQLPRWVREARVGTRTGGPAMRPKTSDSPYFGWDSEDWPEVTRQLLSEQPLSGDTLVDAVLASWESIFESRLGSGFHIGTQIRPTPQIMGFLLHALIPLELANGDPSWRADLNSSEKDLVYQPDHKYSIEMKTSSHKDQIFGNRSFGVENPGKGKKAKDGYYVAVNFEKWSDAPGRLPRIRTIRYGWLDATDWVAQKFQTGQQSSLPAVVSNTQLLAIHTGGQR

[9] = tested on: T9, SspI (Sphaerotilus species); settings: NEB1, 37 C
T9 sequence: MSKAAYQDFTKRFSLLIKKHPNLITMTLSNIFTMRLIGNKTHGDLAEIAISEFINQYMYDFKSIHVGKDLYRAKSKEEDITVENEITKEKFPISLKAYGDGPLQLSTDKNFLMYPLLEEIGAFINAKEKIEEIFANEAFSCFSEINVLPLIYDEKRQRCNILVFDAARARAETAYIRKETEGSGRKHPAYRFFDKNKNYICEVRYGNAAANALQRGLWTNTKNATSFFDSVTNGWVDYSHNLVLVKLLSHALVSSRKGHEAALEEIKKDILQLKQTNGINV

Substance: lambda phage DNA
- activity (fidelity index) [1]: > 4000
- activity (fidelity index) [2]: 32
- activity (fidelity index) [3]: 120
- activity (fidelity index) [4]: > 64000
- activity (fidelity index) [5]: 120
- activity (fidelity index) [6]: 32
- activity (fidelity index) [7]: 1000
- activity (fidelity index) [8]: 1000
- activity (fidelity index) [9]: 64

Reference: patent publication US20130122568
